Measurements taken from patent publication US20250340654A1 (INTERVET, published 2025).

T1: Canine IL-31RA ECD-10His (canine, biotin-labeled in the Octet assay (site not stated))
T1 construct: The ELISA and Octet protocols say only 'IL-31RA' or 'canine IL-31RA'; also called cIL-31RA; canine IL-31 receptor alpha extracellular domain, HIS-tagged
T1 chain: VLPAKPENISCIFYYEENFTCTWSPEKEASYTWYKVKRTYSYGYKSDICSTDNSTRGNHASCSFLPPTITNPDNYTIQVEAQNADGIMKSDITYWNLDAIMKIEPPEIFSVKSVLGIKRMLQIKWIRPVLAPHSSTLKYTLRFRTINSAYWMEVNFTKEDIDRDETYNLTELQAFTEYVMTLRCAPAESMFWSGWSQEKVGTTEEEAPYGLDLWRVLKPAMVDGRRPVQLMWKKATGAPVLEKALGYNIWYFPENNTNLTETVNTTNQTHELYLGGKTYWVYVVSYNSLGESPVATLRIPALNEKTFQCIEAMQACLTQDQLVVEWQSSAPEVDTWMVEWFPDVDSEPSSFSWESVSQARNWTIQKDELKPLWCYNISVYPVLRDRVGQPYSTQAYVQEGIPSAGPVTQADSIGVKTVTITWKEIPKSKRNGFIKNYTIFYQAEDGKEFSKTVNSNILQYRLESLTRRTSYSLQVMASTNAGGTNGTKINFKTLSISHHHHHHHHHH


Experiments:
Canine IL-31RA ECD-10His [1] = biological target: T1, Canine IL-31RA ECD-10His; test: ELISA on coated canine IL-31RA, anti-canine IgG Fc-HRP (Example 11), the unit is that of the x axis 'Ab Log Conc. (ng/mL)'
Description: 1. Coat 200 ng/well of IL-31RA on an immunoplate and incubate the plate at 4° C. overnight. [0257] 2. Wash the plate 3 times with phosphate buffered saline (PBS) containing 0.05% Tween 20 (PBST). […] 3. Block the plate with 0.5% bovine serum albumin (BSA) in PBS for 45-60 min at room temperature. [0259] 4. Wash the plate 3 times with PBST. [0260] 5. Three-fold dilute the caninized antibody in each column or row of dilution plate starting at 0.3 μg/mL. [0261] 6. Transfer the diluted caninized antibody into each column or row of the immunoplate, and incubate the plate for 45-60 min at room temperature. [0262] 7. Wash the plate 3 times with PBST. [0263] 8. Add 1:4000 diluted horseradish peroxidase labeled anti-canine IgG Fc into each well of the plate, and then incubate the plate for 45-60 min at room temperature. [0264] 9. Wash the plate 3 times with PBST. [0265] 10. Add 3,3′,5,5′-tetramethylbenzidine (TMB) Substrate into each well of the plate, and incubate the plate for 10 to 15 min at room temperature to develop the color. [0266] 11. Add 100 μL 1.5 M phosphoric acid into each well to stop the reaction. Read plate at 450 nm with 540 nm reference wavelength.
As depicted in FIGS. 7A-7E, the caninized antibodies were tested for their reactivity to canine IL-31RA.

Canine IL-31RA ECD-10His [2] = biological target: T1, Canine IL-31RA ECD-10His; test: BLI (Octet HTX), biotin-labeled canine IL-31RA on SA biosensors, 1:1 fit
Description: These constants reflect the binding affinity of the individual monoclonal antibodies for canine IL-31 RA.
(§1) All kinetics measurements were performed by Octet HTX using SA biosensors and Data Acquisition 12.0 software. A biotin-labeled antigen (canine IL-31RA) was loaded onto the pre-rehydrated SA biosensors for 120s at a concentration of 1 μg/mL. Next, the biosensors were placed into Octet Kinetics Buffer (PBS+0.02% Tween 20, 0.1% BSA) for the blocking phase for 120s. Then, for the association phase, antigen loaded biosensors were placed into 2-fold serial dilutions from 100 nM down to 3.13 nM of anti-IL-31RA monoclonal antibody in Octet Kinetics Buffer for 300s. The last well was buffer alone and that sensor was used for reference sensor subtraction. Finally, the biosensors were placed into Octet Kinetics Buffer for the dissociation phase for 300s. Analysis was performed using Data Analysis 12.0 software and curves were fitted using a 1:1 binding model.

Canine IL-31RA ECD-10His [3] = biological target: T1, Canine IL-31RA ECD-10His; test: BLI (Octet), biotin-labeled canine IL-31RA on SA biosensors
Description: as §1
Two of the top blocking antibodies: 51F8 and 218D9, had KDs of about 0.2 nM and about 0.07 nM respectively (see, Table 5B below).

EC50 (Canine IL-31RA ECD-10His [1]) [ng/mL]	Kd (Canine IL-31RA ECD-10His [2]) [nM]	koff (Canine IL-31RA ECD-10His [2]) [s⁻¹]	kon (Canine IL-31RA ECD-10His [2]) [M⁻¹ s⁻¹]	Kd (Canine IL-31RA ECD-10His [3]) [nM]	koff (Canine IL-31RA ECD-10His [3]) [s⁻¹]	kon (Canine IL-31RA ECD-10His [3]) [M⁻¹ s⁻¹]	Binder
2.58	–	–	–	–	–	–	Chimeric 85C10 (antibody, V domains shown, canine constant regions not specified; also called murine-canine chimeric 85C10) VH: EFQLQQSGPELVKPGASVKISCKASGYSFTDYSINWVKQSNGKSLEWIGVINPNYGTSSHNQKFKGKATMTVDQSSSTAYMQLNSLTSEDSAVYYCARALDDYYFYWYFDVWGIGTTVTVSS VL: DVVMTQTPLSLPVSLGDQASISCRSSQSLVHTNGNTYLHWYLQKPGQSPKLLIYKVSNRFSGVPDRFSGSGSGTDFTLKISRVEAEDLGVYFCSQTTHVPLTFGAGTKLELK
–	0.451	0.000355	787000	–	–	–	65G9 (antibody, V domains shown, Mouse monoclonal antibody from a hybridoma; also called mouse mAb 65G9) VH: EFQLQQSGPELVKPGASVKISCKASGYSFTDYGMNWLKQINGKSLEWIAIINPNYGTASSNPKFKDKATLTVDHSSSTAYMQLSSLTSEDSAVYYCARAFDGYYFYWYFDVWGTGTTVTVSS VL: DVVMTQTPLSLPVSLGDQASISCRSSQSLIHTNGNTYLHWYLQKPGQSPKLLIYKVSNRFSGVPDRFSGSGSGTDFTLKISRLEAEDLGVYFCSQSTHVPLTFGAGTKLELR
0.581	–	–	–	–	–	–	c100H8VH7VL4 (antibody, V domains shown, Caninized antibody; chains tied by name to c100H8VH7-cIgGBm and c100H8VL4-cCK; also called c100H8VH7L4) VH: EVQLVQSGAEVKKPGASVKVSCKASGYTFTDYNMDWVRQAPGAGLDWIGHINPNNGGILYNQKFKGKATLTADTSTSTAYMELSSLRAGDIAVYYCARWAPLVRQPYWYFDVWGQGTLVTVSS VL: DIVMTQTPLSLSVSPGETASISCKASQDINSYLNWFRQKPGQSPQLLIYRADRLVDGVPDRFSGSGSGTDFTLRISTVEADDTGVYYCLQYDEFPLTFGAGTKVELKR
0.383	–	–	–	–	–	–	Chimeric 224G3 (antibody, V domains shown, canine constant regions not specified; also called m224G3 Chim) VH: EVQLVESGGDLVKPGGSLKLSCAASGFTFSSYGMSWVRQTPDKRLEWVATISNGGSYTYYPDSVKGRFTISRDNAKNTLYMQMSSLKSEDTAMYYCARNEPPDYWGQGTSVTVSS VL: QIVLTQSPAIMSASLGERVTMTCTASSSVGSSYLHWYQQKPGSSPKLWIYDTSNLASGVPVRFSGSGSGTSYSLTISSMEAEDAATYYCHQYHRSPYTFGGGTKLEIK
–	0.207	0.000141	684000	–	–	–	51F8 (antibody, V domains shown, Mouse monoclonal antibody from a hybridoma; also called mouse mAb 51F8) VH: EVQLQQSVAELVRPGASVKLSCTASGFNIKNTFIHWVKQRPEQGLEWIGRIDPANGNTKYAPKFQGRATLTADTSSNTAYLQLSSLTSEDTAIYYCARYYYVSSYFDVWGTGTTVTVSS VL: SIVMTQTPKFLLVSAGDRVTITCKASQSVTNDVTWYQQKPGQSPKLLIFSASNRYTGVPDRFTGSGYGTDFTFTISTVQAEDLAVYFCQQDYSSPWTFGGGTKLEIK
3.42	–	–	–	0.207	0.000141	684000	Chimeric 51F8 (antibody, V domains shown, canine constant regions not specified; also called murine-canine chimeric 51F8) VH: EVQLQQSVAELVRPGASVKLSCTASGFNIKNTFIHWVKQRPEQGLEWIGRIDPANGNTKYAPKFQGRATLTADTSSNTAYLQLSSLTSEDTAIYYCARYYYVSSYFDVWGTGTTVTVSS VL: SIVMTQTPKFLLVSAGDRVTITCKASQSVTNDVTWYQQKPGQSPKLLIFSASNRYTGVPDRFTGSGYGTDFTFTISTVQAEDLAVYFCQQDYSSPWTFGGGTKLEIK
2.02	–	–	–	–	–	–	Chimeric 100H8 (antibody, V domains shown, also called murine-canine chimeric 100H8) VH: EVQLQQSGPELVKPGASVKIPCKASGYTFTDYNMDWVKQSHGKSLEWIGHINPNNGGILYNQKFKGKATLTVDRSSNTAYMELRSLTSEDTAVYFCARWAPLVRQPYWYFDVWGTGTTVTVSS VL: DIKMTQSPSSIFASLGERVTITCKASQDINSYLNWFQQKPGKSPKTLIYRADRLVDGVPSRFSGSGSGQDYSLTISSLEYEDMGIYYCLQYDEFPLTFGAGTKLELN
–	0.174	0.000282	1.62e+06	–	–	–	222E7 (antibody, V domains shown, Mouse monoclonal antibody from a hybridoma; also called mouse mAb 222E7) VH: EVQLQQSGPELVKPGSSVKIPCKASGYTFTDYNMDWVKQSHGKSLEWIGHINPNIGGTLYNQKFKGKATLSVDKSSSTAYMELRSLTSEDTAVYYCARWAQLQRQPYWYFDVWGPGTTVTVSS VL: DIKMTQSPSSMYASLGERVTITCKASQDINSYLNWFQQKPGKSPKTLIYRVNRLVDGVPSRFSGSGSGQDYSLTISSLEYEDMGIYYCLQYDEFPLTFGAGTKLELK
–	0.152	0.00012	788000	–	–	–	100H8 (antibody, V domains shown, Mouse monoclonal antibody from a hybridoma; also called mouse mAb 100H8) VH: EVQLQQSGPELVKPGASVKIPCKASGYTFTDYNMDWVKQSHGKSLEWIGHINPNNGGILYNQKFKGKATLTVDRSSNTAYMELRSLTSEDTAVYFCARWAPLVRQPYWYFDVWGTGTTVTVSS VL: DIKMTQSPSSIFASLGERVTITCKASQDINSYLNWFQQKPGKSPKTLIYRADRLVDGVPSRFSGSGSGQDYSLTISSLEYEDMGIYYCLQYDEFPLTFGAGTKLELN
–	0.272	0.000154	568000	–	–	–	55B3 (antibody, V domains shown, Mouse monoclonal antibody from a hybridoma; also called mouse mAb 55B3) VH: EVQLQQSGPELVKPGASVKIPCKASGYTFTDYNMDWVKQSHGKSLEWIGHINPNTGGTIYNQKFKGKATLTVDKSSSTAYMDLRSLTSEDTAVYYCARWAQLLRQPYWYFDVWGTGTTVTVSS VL: DIKMTQSPSSMYASLGERVTITCKASQDINSYFNWVQQKPGKSPKTLIFRANRLVDGVPSRFSGSGSGQDYSLTINSLEYEDMGIYYCLQYDEFPLTFGAGTKLELK
–	0.196	9.05e-05	463000	–	–	–	74H10 (antibody, V domains shown, Mouse monoclonal antibody from a hybridoma; also called mouse mAb 74H10) VH: EVQLQQSGPELVKPGASMKIPCKTSGYTFTDYNMDWVKQSHGKSLEWIGHINPNNGGTLYNQKFKDKATLTVDRSSNTAYMELRSLTSEDTAVYYCARWAPLLRQPYWYFDVWGTGTTVTVSS VL: DIKMTQSPSSMYASLGERVTITCKASQDINSYLNWFQQKPGKSPKTLIYRADRLVDGVPSRFSGSGSGQDYSLTISSLEYEDMGIYYCLQYDEFPLTFGDGTKLELN
16.9	–	–	–	2.67	0.00114	428000	c51F8VH3VL6 (antibody, V domains shown, Caninized antibody; chains tied by name to c51F8VH3-cIgGBm and c51F8VL6-cCK; also called c51F8VH3L6) VH: EVQLVQSGAEVKKPGASVKVSCTASGFNIKNTFIHWVRQAPGAGLDWIGRIDPANGNTKYAPKFQGRATLTADTSTNTAYMQLSSLRAGDIAVYYCARYYYVSSYFDVWGQGTLVTVSS VL: DIVMTQTPLSLSVSPGETASISCKASQSVTNDVTWFRQKPGQSPQLLIYSASNRYTGVPDRFSGSGSGTDFTLRISTVEADDTGVYYCQQDYSSPWTFGQGTKLEIKR
8.31	–	–	–	1.01	0.000448	445000	c51F8VH4VL6 (antibody, V domains shown, Caninized antibody; chains tied by name to c51F8VH4-cIgGBm and c51F8VL6-cCK; also called c51F8VH4L6) VH: EVQLVQSGAEVVKPGASVKVSCTASGFNIKNTFIHWVRQRPGAGLDWIGRIDPANGNTKYAPKFQGRATLTADTSTNTAYMQLSSLRAGDIAVYYCARYYYVSSYFDVWGTGTLVTVSS VL: DIVMTQTPLSLSVSPGETASISCKASQSVTNDVTWFRQKPGQSPQLLIYSASNRYTGVPDRFSGSGSGTDFTLRISTVEADDTGVYYCQQDYSSPWTFGQGTKLEIKR
25	–	–	–	3.99	0.0016	401000	c51F8VH3VL7 (antibody, V domains shown, Caninized antibody; chains tied by name to c51F8VH3-cIgGBm and c51F8VL7-cCK; also called c51F8VH3L7) VH: EVQLVQSGAEVKKPGASVKVSCTASGFNIKNTFIHWVRQAPGAGLDWIGRIDPANGNTKYAPKFQGRATLTADTSTNTAYMQLSSLRAGDIAVYYCARYYYVSSYFDVWGQGTLVTVSS VL: DIVMTQTPLSLSVSPGETASISCKASQSVTNDVTWFRQKPGQSPKLLIYSASNRYTGVPDRFSGSGSGTDFTLRISTVEADDTGVYYCQQDYSSPWTFGQGTKLEIKR
